Assays:
Assay in all cases: purified protein
c1ccc(OC[C@@H]2CO2)cc1 = settings: 50 mM Tris pH 8.0, 30 °C, 30 min, 2 μg protein
c1ccc(OC[C@H]2CO2)cc1 = settings: 50 mM Tris pH 8.0, 30 °C, 30 min, 2 μg protein
c1ccc(OCC2CO2)cc1 = settings: 50 mM Tris pH 8.0, 30 °C, 30 min, 2 μg protein
c1ccc(COC[C@H]2CO2)cc1 = format: biochemical, Yarrowia lipolytica; settings: 50 mM Tris pH 8.0, 30 °C, 30 min, 10 μg protein
c1ccc(COC[C@@H]2CO2)cc1 = format: biochemical, Yarrowia lipolytica; settings: 50 mM Tris pH 8.0, 30 °C, 30 min, 2 μg protein
c1ccc(COCC2CO2)cc1 = format: biochemical, Yarrowia lipolytica; settings: 50 mM Tris pH 8.0, 30 °C, 30 min, 2 μg protein

Substance: Ylehd (Yarrowia lipolytica)
- Km (c1ccc(OC[C@@H]2CO2)cc1): 930 ± 71 µM
- kcat (c1ccc(OC[C@@H]2CO2)cc1): 15.7 s⁻¹
- kcat/Km (c1ccc(OC[C@@H]2CO2)cc1): 16600 M⁻¹ s⁻¹
- Km (c1ccc(OC[C@H]2CO2)cc1): 1320 ± 45 µM
- kcat (c1ccc(OC[C@H]2CO2)cc1): 33.8 s⁻¹
- kcat/Km (c1ccc(OC[C@H]2CO2)cc1): 25500 M⁻¹ s⁻¹
- Km (c1ccc(OCC2CO2)cc1): 600 ± 9 µM
- kcat (c1ccc(OCC2CO2)cc1): 7.34 s⁻¹
- kcat/Km (c1ccc(OCC2CO2)cc1): 12200 M⁻¹ s⁻¹
- Km (c1ccc(COC[C@H]2CO2)cc1): 800 ± 10 µM
- kcat (c1ccc(COC[C@H]2CO2)cc1): 3.45 ± 0.089 s⁻¹
- kcat/Km (c1ccc(COC[C@H]2CO2)cc1): 4310 ± 70 M⁻¹ s⁻¹
- Km (c1ccc(COC[C@@H]2CO2)cc1): 270 ± 24 µM
- kcat (c1ccc(COC[C@@H]2CO2)cc1): 12 ± 0.97 s⁻¹
- kcat/Km (c1ccc(COC[C@@H]2CO2)cc1): 44700 ± 870 M⁻¹ s⁻¹
- Km (c1ccc(COCC2CO2)cc1): 150 ± 2 µM
- kcat (c1ccc(COCC2CO2)cc1): 5.73 ± 0.54 s⁻¹
- kcat/Km (c1ccc(COCC2CO2)cc1): 38200 ± 1080 M⁻¹ s⁻¹

Reference: paper PMC9079618, “Evaluating Ylehd, a recombinant epoxide hydrolase from Yarrowia lipolytica as a potential biocatalyst for the resolution of benzyl glycidyl ether” (RSC Advances, 2018)
